Experiments:
[1] = target: T1, recombinant preparation of soluble MAC-1 (UniProt P11215 17-1104; P05107 23-700); experiment: MAC-1 capture ELISA titer over UV concentration; freeze/thaw study, F1, held at 5° C. (control)
[2] = target: T1, recombinant preparation of soluble MAC-1; experiment: MAC-1 capture ELISA titer over UV concentration; freeze/thaw study, F2, held at 5° C. (control)
[3] = target: T1, recombinant preparation of soluble MAC-1; experiment: MAC-1 capture ELISA titer over UV concentration; freeze/thaw study, F3, held at 5° C. (control)
[4] = target: T1, recombinant preparation of soluble MAC-1; experiment: MAC-1 capture ELISA titer over UV concentration; freeze/thaw study, F4, held at 5° C. (control)
[5] = target: T1, recombinant preparation of soluble MAC-1; experiment: MAC-1 capture ELISA titer over UV concentration; freeze/thaw study, F5, held at 5° C. (control)
[6] = target: T1, recombinant preparation of soluble MAC-1; experiment: MAC-1 capture ELISA titer over UV concentration; F1 after three freeze/thaw cycles -20° C. to 5° C.
[7] = target: T1, recombinant preparation of soluble MAC-1; experiment: MAC-1 capture ELISA titer over UV concentration; F1 after three freeze/thaw cycles -70° C. to 5° C.
[8] = target: T1, recombinant preparation of soluble MAC-1; experiment: MAC-1 capture ELISA titer over UV concentration; F2 after three freeze/thaw cycles -20° C. to 5° C.
[9] = target: T1, recombinant preparation of soluble MAC-1; experiment: MAC-1 capture ELISA titer over UV concentration; F2 after three freeze/thaw cycles -70° C. to 5° C.
[10] = target: T1, recombinant preparation of soluble MAC-1; experiment: MAC-1 capture ELISA titer over UV concentration; F3 after three freeze/thaw cycles -20° C. to 5° C.
[11] = target: T1, recombinant preparation of soluble MAC-1; experiment: MAC-1 capture ELISA titer over UV concentration; F3 after three freeze/thaw cycles -70° C. to 5° C.
[12] = target: T1, recombinant preparation of soluble MAC-1; experiment: MAC-1 capture ELISA titer over UV concentration; F4 after three freeze/thaw cycles -20° C. to 5° C.
[13] = target: T1, recombinant preparation of soluble MAC-1; experiment: MAC-1 capture ELISA titer over UV concentration; F4 after three freeze/thaw cycles -70° C. to 5° C.
[14] = target: T1, recombinant preparation of soluble MAC-1; experiment: MAC-1 capture ELISA titer over UV concentration; F5 after three freeze/thaw cycles -20° C. to 5° C.
[15] = target: T1, recombinant preparation of soluble MAC-1; experiment: MAC-1 capture ELISA titer over UV concentration; F5 after three freeze/thaw cycles -70° C. to 5° C.

- Specific Activity (MAC-1/UV) [1]: 1.05 ratio (MAC-1/UV)
- Specific Activity (MAC-1/UV) [2]: 1.14 ratio (MAC-1/UV)
- Specific Activity (MAC-1/UV) [3]: 1.1 ratio (MAC-1/UV)
- Specific Activity (MAC-1/UV) [4]: 0.98 ratio (MAC-1/UV)
- Specific Activity (MAC-1/UV) [5]: 1.14 ratio (MAC-1/UV)
- Specific Activity (MAC-1/UV) [6]: 1 ratio (MAC-1/UV)
- Specific Activity (MAC-1/UV) [7]: 1.03 ratio (MAC-1/UV)
- Specific Activity (MAC-1/UV) [8]: 1.2 ratio (MAC-1/UV)
- Specific Activity (MAC-1/UV) [9]: 1.13 ratio (MAC-1/UV)
- Specific Activity (MAC-1/UV) [10]: 1.08 ratio (MAC-1/UV)
- Specific Activity (MAC-1/UV) [11]: 1.1 ratio (MAC-1/UV)
- Specific Activity (MAC-1/UV) [12]: 1.09 ratio (MAC-1/UV)
- Specific Activity (MAC-1/UV) [13]: 1.06 ratio (MAC-1/UV)
- Specific Activity (MAC-1/UV) [14]: 1.09 ratio (MAC-1/UV)
- Specific Activity (MAC-1/UV) [15]: 1.09 ratio (MAC-1/UV)
B1: recombinant humanized anti-CD18 antibody (rhuMAb CD18) (antibody, V domains shown)
VH: EVQLVESGGGLVQPGGSLRLSCATSGYTFTEYTMHWMRQAPGKGLEWVAGINPKNGGTSHNQRFMDRFTISVDKSTSTAYMQMNSLRAEDTAVYYCARWRGLNYGFDVRYFDVWGQGTLVTVSS
VL: DIQMTQSPSSLSASVGDRVTITCRASQDINNYLNWYQQKPGKAPKLLIYYTSTLHSGVPSRFSGSGSGTDYTLTISSLQPEDFATYYCQQGNTLPPTFGQGTKVEIKR
notes: Tested as an F(ab')2 of two light and two heavy chains linked by disulfide bonds, made in E. coli; It was humanized from murine muMAb H52; It says the antibody is directed to the CD18 chain of MAC-1; also called anti-CD18 F(ab')2 antibody; humanized H52 antibody
